Test results as given in the supplement of paper PMC9170038.

Tested on: MS2 coat protein
Assay: apparent KD of MS2 coat protein; higher = weaker reporter binding
Details: Eterna round: R107
Method: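 RNA-MaP round R107: designed RNA switches with theophylline, tryptophan, arginine or FMN aptamers are transcribed on-chip within common flanks. They are titrated with SNAP-549-labelled MS2 coat protein in RNA-MaP buffer (100 mM Tris pH 7.5, 80 mM KCl, 4 mM MgCl2), without ligand or with the indicated ligand. Median apparent KD per design.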

[1] = input ligand: theophylline 20 uM
[2] = input ligand: theophylline 2 mM
[3] = input ligand: tryptophan 2.4 mM

Sequence	apparent KD of MS2 coat protein (input ligand: arginine 13.2 mM) [µM]	apparent KD of MS2 coat protein [1] [µM]	apparent KD of MS2 coat protein [2] [µM]	apparent KD of MS2 coat protein [3] [µM]	apparent KD of MS2 coat protein (input ligand: none) [µM]
AGCUCGCAUCCUCUAGCGUCAAAGACGCCUCGAGGACCGGUACGGCCGCCACUCGAGAUGAGGAUCACCCAUCUCAAAGCGAGCA [TrypAX 14 #SwitchBubble #AlternativeMS2 #MS2Late #CuTurnoff]	0.0716	0.197	0.254	0.156	–
AGGACAUGAGGAUCACCCAUGUACUCUGAAGGAGCGUCGAGAACGACAGGUAGGUCGCAGGCUAAGGAAGGUGAUGCUCAAGAAG [Exclusion Arginine A GF7]	0.0201	0.0373	0.0248	0.0152	0.0202
AGGACCAGGAUCCUCAUGUAACUGGUCCAACGAGGACCGGUACGGCCGCCACUCGAAUAAACAUGAGGAUCACCCAUGUAAUAAU [T''-M-T'-T-MS2]	0.0369	0.169	0.313	0.426	0.268
AGGUGCAAAGCACCCUCUGGCCCUCGUGAAGGAGCGCUCGAAAGAGCAGGUAGGUCGCAUGAGGAUCACCCAUGUGAGCCAGAGA [Arg A Exc A v1]	0.0351	0.0835	0.0653	0.0562	0.0525
AGUAACAUGAGGAUCACCCAUGUAUGAGAAGGAGCGUGUUUUAACACAGGUAGGUCGCUCAAUAUUAUUUACUAGCGAAAGCUAG [JR_SSArginiA_Sub007]	0.022	0.0233	0.0179	0.018	0.0146
AGUACUCGAACGGAUACCAGCCGGACAUGAGGAUCACCCAUGUCCUACCAUGGUUCGGUUGGCCCUUGGCAGCCGUUCGUGUACA [Omei Theo B SS A v3]	0.128	0.204	–	0.203	–
AGUAUCAGUGGAAGGAGCGUCGCGAAUGUCACAUGAGGAUCACCCAUGUCGUCUUGAGCGCGACAGGUAGGUCGCCACGGUAGGC [SS-ArgB4]	0.0121	0.0159	0.0145	0.0135	0.0101
AGUUACAUGAGGAUCACCCAUGUCCGGUUGCGAGGACCGGUACGGCCGCCACUCGGGUACAUCCCAGAAAAUACUGAAUGCCUGC [theeternabot_sameState_MS2_Trp_A_15]	0.0418	0.0664	0.0845	–	–
AUAAAUGGGUUAAUUAGUUUUAGGUCCAGUCGAGGACCGGUACGGCCGCCACUCGUCCCAAGUUACAUGAGGAUCACCCAUGUUA [JR_ExcTryptoA_Sub014]	0.0338	0.0525	0.0919	–	–
AUAACAUGAGGAUCACCCAUGUUGAGUGAUACCAGACCAUGUAGUGUCCCUUGGCAGCACAGGUAAAGUUGUAAAUAACGAUAGA [#13 SameState-TheophyllineA]	0.0386	0.0647	0.0228	0.0597	0.0539
AUAAGGUAUCUGCUUCAUGGGUGAGCAGAUACCAGCUAGGAAACUAGCCCUUGGCAGCUGCAACAUGAGGAUCACCCAUGUAAUA [(T)'-(M)'-(T1)-(T2)-(M1)-(M2)_Design2]	0.0607	0.149	0.964	0.142	1.06
AUACAUGAGGAUCACCCAUGUCCUCGUGAUCGAGGACCGGUACGGCCGCCACUCGGUCCUCGCGAGGAGGAGUCAAAGACUCCAA [Omei Trp A SS A v4]	0.0385	0.111	0.113	0.0538	0.0829
AUACCACCUUCGGCCGCCACUAUGUAUGGGUUCCCAACGUUGAAGGACAUGAGGAUCACCCAUGUUAGGACCGGGAAAAGUGCCU [theeternabot_exclusion_MS2_Trp_B_17]	0.0453	0.106	0.103	–	–
AUAUAUACAUGAGGAUCACCCAUGUUAUUUCGAGGACCGGUACGGCCGCCACUCGAUAGAGUAGAAGUAAAUUUUGUUACAUGUA [JR_SSTryptoA_Sub010]	0.0104	0.0137	0.0108	–	–
AUAUAUACAUGAGGAUCACCCAUGUUAUUUCGAGGACCGGUACGGCCGCCACUCGAUAGAGUAGAAGUAACAUGUGUUAGUUGAU [JR_SSTryptoA_Sub014]	0.0163	0.0328	0.0391	–	–
